{"source": "patent US20220324922A1", "target": "GluN2B-containing NMDA receptor (GluN1a/GluN2B)", "assay": "cell-based or functional assay"}
{"binder": "ADTDYADGSEDKVVE", "note": "[Con-G-like APP (cAPP)]", "values": [{"measurement": "inhibition of receptor currents, two-electrode voltage clamp, Xenopus oocytes", "result": "< 30", "unit": "%"}]}
